Results from IntAct's records for PubMed 18278053.

B1: Integrin beta-1 (Gallus gallus (Chicken)), P07228 (parent)
chain: MAETNLTLLTWAGILCCLIWSGSAQQGGSDCIKANAKSCGECIQAGPNCGWCKKTDFLQEGEPTSARCDDLAALKSKGCPEQDIENPRGSKRVLEDREVTNRKIGAAEKLKPEAITQIQPQKLVLQLRVGEPQTFSLKFKRAEDYPIDLYYLMDLSYSMKDDLENVKSLGTALMREMEKITSDFRIGFGSFVEKTVMPYISTTPAKLRNPCTGDQNCTSPFSYKNVLSLTSEGNKFNELVGKQHISGNLDSPEGGFDAIMQVAVCGDQIGWRNVTRLLVFSTDAGFHFAGDGKLGGIVLPNDGKCHLENNMYTMSHYYDYPSIAHLVQKLSENNIQTIFAVTEEFQAVYKELKNLIPKSAVGTLSSNSSNVIQLIIDAYNSLSSEVILENSKLPKEVTISYKSYCKNGVNDTQEDGRKCSNISIGDEVRFEINVTANECPKKGQNETIKIKPLGFTEEVEIHLQFICDCLCQSEGEPNSPACHDGNGTFECGACRCNEGRIGRLCECSTDEVNSEDMDAYCRRENSTEICSNNGECICGQCVCKKRENTNEVYSGKYCECDNFNCDRSNGLICGGNGICKCRVCECFPNFTGSACDCSLDTTPCMAGNGQICNGRGTCECGTCNCTDPKFQGPTCEMCQTCLGVCAEHKDCVQCRAFEKGEKKETCSQECMHFNMTRVESRGKLPQPVHPDPLSHCKEKDVGDCWFYFTYSVNSNGEASVHVVETPECPSGPDIIPIVAGVVAGIVLIGLALLLIWKLLMIIHDRREFAKFEKEKMNAKWDTGENPIYKSAVTTVVNPKYEGK

Variants of: B1
Settings: with urp2_mouse Fermt3, Q8K1B8
Chain of urp2_mouse Fermt3, Q8K1B8 (Q8K1B8 whole entry): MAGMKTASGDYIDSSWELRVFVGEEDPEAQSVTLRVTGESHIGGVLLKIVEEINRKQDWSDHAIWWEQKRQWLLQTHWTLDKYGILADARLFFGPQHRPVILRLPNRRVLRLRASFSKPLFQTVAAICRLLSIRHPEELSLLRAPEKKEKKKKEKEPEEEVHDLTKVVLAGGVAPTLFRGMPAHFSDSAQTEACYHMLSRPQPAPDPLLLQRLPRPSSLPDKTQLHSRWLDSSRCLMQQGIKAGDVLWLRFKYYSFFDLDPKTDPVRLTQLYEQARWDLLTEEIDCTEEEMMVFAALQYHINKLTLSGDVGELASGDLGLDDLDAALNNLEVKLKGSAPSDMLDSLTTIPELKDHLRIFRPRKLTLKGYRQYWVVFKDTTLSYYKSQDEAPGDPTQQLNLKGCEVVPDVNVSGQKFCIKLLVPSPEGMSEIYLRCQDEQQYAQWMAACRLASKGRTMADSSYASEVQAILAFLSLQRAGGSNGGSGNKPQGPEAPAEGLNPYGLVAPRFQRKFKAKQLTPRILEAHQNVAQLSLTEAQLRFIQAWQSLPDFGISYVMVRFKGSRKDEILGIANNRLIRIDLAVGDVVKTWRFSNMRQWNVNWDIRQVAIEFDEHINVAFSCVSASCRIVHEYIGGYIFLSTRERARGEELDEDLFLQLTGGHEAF

| Variant | effect of a mutation on the interaction |
| --- | --- |
| Y788A | decreasing interaction strength |
| Y800A | disrupting interaction strength |
| T793A;T794A | disrupting interaction strength |
| W780A | decreasing interaction strength |
